From publication PMC5526978 come the findings set out here.

This experiment deals with GCSF-Fc (human granulocyte colony-stimulating factor fused with the IgG1 Fc domain at the C-terminus) (UniProt P09919). Description: non-reducing SDS-PAGE; purified GCSF-Fc run under reducing and non-reducing conditions, 10% SDS-PAGE.

By stoichiometry N is commonly meant the number of molecules, sites or subunits per partner or assembly. The substance “GCSF-Fc (human granulocyte colony-stimulating factor fused with the IgG1 Fc domain at the C-terminus) (from UniProt P09919-2 31-204) (Fc fusion)” showed a stoichiometry N of 2.
